The source of these data is patent US8821862B2, “Soluble β-N-acetylglucosaminidase based antibiofilm compositions and uses thereof” (Kane Biotech Inc., priority 2002, dated 2014).

For data set [1], the system named is biofilm-embedded S. epidermidis. The experiment in a line: In vitro biofilm killing assay after DispersinB pre-treatment. It is filed as cell-based, Staphylococcus epidermidis. The settings on record: DispersinB alone, 20 μg/ml, 30 min. Here is the method: An in vitro biofilm assay was performed to determine the effect of DispersinB™ pre-treatment on the susceptibility of S. epidermidis to SDS. S. epidermidis biofilm grown in tubes were pretreated with PBS or DispersinB™ (20 μg/ml) for 30 min, and then treated with SDS (0.2 mg/ml) for 5 min at 37° C. […] However, SDS caused a 1.5 log unit decrease in the number of CFUs in tubes pretreated with […] biofilm embedded cells more susceptible to SDS.
An in vitro biofilm assay was performed to determine the effect of DispersinB™ pre-treatment on the susceptibility of biofilm-embedded S. epidermidis to CHX. S. epidermidis biofilm grown in tubes were pretreated with PBS or DispersinB™ (20 μg/ml) for 30 min, and then treated with CHX (0.2 μg/ml) for 5 min at 37° C. […] However, CHX caused a 1.6 log decrease of CFU in tubes pretreated with DispersinB™. DispersinB™ pretreatment made biofilm-embedded cells more susceptible to CHX.
An in vitro biofilm assay was performed to determine the effect of DispersinB™ pre-treatment on the susceptibility of S. epidermidis to BKC. S. epidermidis biofilm grown in tubes were pretreated with PBS or DispersinB™ (20 μg/ml) for 30 min, and then treated with BKC (0.4 μg/ml) for 60 min at 37° C. […] However, BKC caused a 2.2 log decrease in CFU in tubes pretreated with DispersinB™. DispersinB™ pre-treatment made biofilm-embedded cells more susceptible to BKC.
An in vitro biofilm assay was performed to determine the effect of DispersinB™ pre-treatment on susceptibility of S. epidermidis to silver nanopowder (SNP). S. epidermidis biofilm grown in tubes were pretreated with PBS or DispersinB™ (20 μg/ml) for 30 min, and then treated with SNP (0.03125 μg/ml) for 60 min at 37° C. […] However, SNP caused a 1.5 log decrease in CFU in tubes pretreated with DispersinB™. DispersinB™ pre-treatment made biofilm embedded cells more susceptible to SNP treatment.

Data set [2] can be described thus: Shelf life of purified DispersinB. It is filed as physicochemical.
Data set [3] in a line: DispersinB enzyme activity. In kind it is biochemical. The following applies: recombinant protein purified from an overexpressing strain of E. coli. The procedure:
Reagents. Recombinant dispersinB protein was purified from an overexpressing strain of E. coli as previously described (Kaplan et al., J. Bacteriol. 2003, 185: 4693-4698). […] Sodium dodecyl sulfate (SDS) was purchased from Fluka (St. Gallen, Switzerland). Phosphate-buffered saline (PBS; 138 mM NaCl, 10 mM phosphate, 2.7 mM KCl, pH 7.4) was purchased from Sigma Chemical Company (St. Louis, Mo., USA).

Another data set relates to S. epidermidis biofilm. Put plainly: Dispersal of S. epidermidis biofilm aggregates in a tube. In kind it is cell-based. The settings on record: scraped biofilm cell aggregates in tube treated with DispersinB. The source says:
The biofilm growth from the surface was scraped from the bottom of the tube and transferred to another tube (FIG. 2). Under these condition cells formed a sticky aggregate that rapidly settle to the bottom of the tube.

The next data set relates to S. epidermidis. The experiment in a line: In vitro microplate growth and biofilm formation assay (crystal violet). In kind it is cell-based, Staphylococcus epidermidis. The following applies: DispersinB at different concentrations, TSB, 37° C., 24 hours. The procedure: An overnight culture of S. epidermidis in Tryptic Soy Broth (TSB) was used as inoculum. Bacteria were grown in TSB on a 96-well microtiterplate in the absence and presence of each compound (DispersinB™ or TCSN) at different concentrations separately and together (DispersinB™+TCSN). Concentrations of DispersinB™ included 25 ng/ml, 50 ng/ml, and 100 ng/ml. Concentrations of TCSN included 25 μg/ml, 50 μg/ml, and 100 μg/ml. The plate was incubated at 37° C. for 24 hours. The growth and biofilm was measured as explained in Example 1.
The experiment was performed as explained in Example 1.
An in vitro microtiter assay was performed to determine the effect of DispersinB™ wound gel on the growth and biofilm formation of Staphylococcus epidermidis. S. epidermidis biofilm was grown in tryptic soy broth (TSB). S. epidermidis was grown in 96-well microtiter plate in the absence and presence of DispersinB™ wound gel at different concentrations. The plate was incubated at 37° C. for 24 hours.
In vitro microplate assay was performed to determine the synergistic effect of DispersinB™ and triclosan (an antimicrobial agent) on the growth and biofilm formation of S. epidermidis. Overnight culture of S. epidermidis in Tryptic Soy Broth (TSB) was used as inoculum. […]

B1: DispersinB™: 381 amino acid soluble β-N-acetylglucosaminidase encoded by dspB of A. actinomycetemcomitans; mature polypeptide SEQ ID NO:11 (protein)
chain: NCCVKGNSIYPQKTSTKQTGLMLDIARHFYSPEVIKSFIDTISLSGGNFLHLHFSDHENYAIESHLLNQRAENAVQGKDGIYINPYTGKPFLSYRQLDDIKAYAKAKGIELIPELDSPNHMTAIFKLVQKDRGVKYLQGLKSRQVDDEIDITNADSITFMQSLMSEVIDIFGDTSQHFHIGGDEFGYSVESNHEFITYANKLSYFLEKKGLKTRMWNDGLIKNTFEQINPNIEITYWSYDGDTQDKNEAAERRDMRVSLPELLAKGFTVLNYNSYYLYIVPKASPTFSQDAAFAAKDVIKNWDLGVWDGRNTKNRVQNTHEIAGAALSIWGEDAKALKDETIQKNTKSLLEAVIHKTNGDE
modifications: Actinobacillus actinomycetemcomitans
For the molecule B1, in data set [1], the “killing of biofilm-embedded S. epidermidis” value is given as “did not significantly kill”. Besides, the shelf life result in data set [2] was “approximately 12 months”. Besides, the specific activity in data set [3] was ~10^3 units per mg of protein. Besides, the “dispersal of S. epidermidis biofilm” value in the data set on S. epidermidis biofilm is listed as “detaches the biofilm”. In addition, the biofilm formation entry in the data set with S. epidermidis is reported as “appreciable effect”.
